Reference: IntAct's records for PubMed 10220404

B1: Protein enabled (Drosophila melanogaster (Fruit fly)), Q8T4F7 (parent)
chain: MAMKKLYAKTSFTSKKPSSAANSTPILAYHQQQHQQPGNGICEFQVVAPGHSGELMIRRSQSMHHKMSPPVGGLGSKSEYYSIEELQELDLLDYRHPMYHHYQQQELRQRYHEHEQLVLQLPKATSPKAGPIYEAPQRSQQQQDQMLYVPTAAQRDSSSSAAATSIASSSTLTSSPSPSSSSSLIFSTLRKCVSPSNPSVNPNQPSKTQPSKLGCSMSFSIRTTTATAATAAAANAATATLSTQQQQQQAQQQHKQHLYSNIHHYLIRQQQQKQHYTLQRRHNSVKDKFIGGITTIFAEQSIIGARASVMVYDDNQKKWVPSGSSSGLSKVQIYHHQQNNTFRVVGRKLQDHEVVINCSILKGLKYNQATATFHQWRDSKFVYGLNFSSQNDAENFARAMMHALEVLSGRVANNPGGPPTNGNGYEEDMGYRTMTSEDAAILRQNNSIGGHVTPSAQTPTSQTNQNNIPQSPPTPQGHHRTSSAPPAPQPQQQQQQQQAQQMGQPGSHYGPTGNGPTSNGLPQQVNSQIPPAPQQQPQQQQFQQQQQQQQYQQMVQAGYAPSQQYQQPHYVLSNSNPNLTVHQYPTQQAQQQPPQAPQPPLQNGGMYMVGHGHLPSSASANSVVYASQQQMLPQAHPQAPQAPTMPGPGYGGPPVPPPQQQAENPYGQVPMPPPMNPSQQQQPGQVPLNRMSSQGGPGGPPAPAPPPPPPSFGGAAGGGPPPPAPPQMFNGAPPPPAMGGGPPPAPPAPPAMGGGPPPAPGGPGAPPPPPPPPGLGGAPKKEDPQADLMGSLASQLQQIKLKKNKVTTSAPENSGSSTSSGGSGNYGTIGRSSNGMASMMDEMAKTLARRRAQAEKKDPDPEAEVKKRPWEKSNTLPHKLSGGAGSGSAGSGHEGANGNSGGAGSNTTNSGGESPRPMRKRFGSASEETILKVNGDGLSLALSNGDLDTLKAEIVREMRLEIQKVKNEIIDAIKSEFNRR

Tests used:
abl_drome Abl, P00522 = variants of: B1; conditions: with abl_drome Abl
src_mouse Src, P05480 = variants of: B1; conditions: with src_mouse Src

Sequence of abl_drome Abl, P00522 (P00522 whole entry): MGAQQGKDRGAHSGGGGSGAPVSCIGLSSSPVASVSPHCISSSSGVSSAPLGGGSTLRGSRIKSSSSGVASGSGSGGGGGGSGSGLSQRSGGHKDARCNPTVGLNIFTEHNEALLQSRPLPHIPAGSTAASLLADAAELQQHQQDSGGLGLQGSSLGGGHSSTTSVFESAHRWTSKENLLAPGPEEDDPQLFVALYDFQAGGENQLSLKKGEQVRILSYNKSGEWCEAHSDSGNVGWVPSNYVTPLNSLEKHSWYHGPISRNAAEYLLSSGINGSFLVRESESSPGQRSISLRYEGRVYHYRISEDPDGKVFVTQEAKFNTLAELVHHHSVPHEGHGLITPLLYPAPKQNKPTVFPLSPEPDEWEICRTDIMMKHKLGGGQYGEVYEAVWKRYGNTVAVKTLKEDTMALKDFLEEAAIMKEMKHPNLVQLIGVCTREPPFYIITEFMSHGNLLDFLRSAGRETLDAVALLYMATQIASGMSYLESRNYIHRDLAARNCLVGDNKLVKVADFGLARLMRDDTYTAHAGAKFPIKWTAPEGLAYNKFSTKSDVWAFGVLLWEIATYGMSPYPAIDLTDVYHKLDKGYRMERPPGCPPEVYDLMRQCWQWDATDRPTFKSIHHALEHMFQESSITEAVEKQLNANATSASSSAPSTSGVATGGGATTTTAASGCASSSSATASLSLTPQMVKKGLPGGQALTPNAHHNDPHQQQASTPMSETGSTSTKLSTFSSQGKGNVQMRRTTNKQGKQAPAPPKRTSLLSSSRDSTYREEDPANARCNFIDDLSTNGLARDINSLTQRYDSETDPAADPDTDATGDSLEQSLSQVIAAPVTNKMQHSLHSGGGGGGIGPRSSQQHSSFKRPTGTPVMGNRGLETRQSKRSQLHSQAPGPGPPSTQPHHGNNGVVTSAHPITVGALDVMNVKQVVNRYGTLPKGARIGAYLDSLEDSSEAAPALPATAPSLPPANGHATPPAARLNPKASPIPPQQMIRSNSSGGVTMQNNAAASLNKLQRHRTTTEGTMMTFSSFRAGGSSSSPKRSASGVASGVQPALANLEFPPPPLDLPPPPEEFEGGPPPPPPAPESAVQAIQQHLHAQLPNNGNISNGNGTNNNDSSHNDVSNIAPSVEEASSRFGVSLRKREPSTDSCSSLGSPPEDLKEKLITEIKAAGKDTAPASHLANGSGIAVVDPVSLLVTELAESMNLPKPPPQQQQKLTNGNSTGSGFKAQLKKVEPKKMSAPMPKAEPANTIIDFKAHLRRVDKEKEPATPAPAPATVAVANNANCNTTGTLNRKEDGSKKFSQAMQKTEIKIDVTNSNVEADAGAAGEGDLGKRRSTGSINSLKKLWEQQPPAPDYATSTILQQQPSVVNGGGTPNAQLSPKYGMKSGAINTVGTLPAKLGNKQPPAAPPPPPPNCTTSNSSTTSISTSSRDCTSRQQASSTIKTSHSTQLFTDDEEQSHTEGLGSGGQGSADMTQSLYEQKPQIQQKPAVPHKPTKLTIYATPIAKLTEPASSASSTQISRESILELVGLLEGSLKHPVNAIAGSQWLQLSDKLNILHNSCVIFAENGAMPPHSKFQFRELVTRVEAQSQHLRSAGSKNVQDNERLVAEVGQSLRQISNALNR

Row | Variant | effect of a mutation on the interaction (abl_drome Abl, P00522) | effect of a mutation on the interaction (src_mouse Src, P05480)
1 | P763A;P770A;P771A;P772A | decreasing interaction | decreasing interaction
2 | P701A;P707A;P708A;P709A | decreasing interaction | decreasing interaction
